According to patent US20240410826A1:

Experiments:
[1] = biological target: Human colostrum IgA (Catalog No. 16-13-090701, Athens Research and Technology) (human); assay: ESM parallel kinetics; binding in free solution in a mixture of anti-IgA, IgA and IgM, 2.5 nM each; fit of IgA monomer ratio decay
[2] = biological target: Human colostrum IgA (Catalog No. 16-13-090701, Athens Research and Technology) (human); assay: ESM end-point size histogram of IgA/BSA mixture tethered on ITO, before (12.1±1.2 nm) and after (13.6±2.1 nm) adding anti-IgA; ~420 molecules
[3] = biological target: Human colostrum IgA (Catalog No. 16-13-090701, Athens Research and Technology) (human); assay: ESM digital single-molecule counting; 20 nM IgA flowed over anti-IgA fixed on cover glass; KD=koff/kon
[4] = biological target: Human colostrum IgA (Catalog No. 16-13-090701, Athens Research and Technology) (human); assay: single-objective ESM digital counting; 5 nM IgA flowed over anti-IgA fixed on ITO; KD=koff/kon
[5] = biological target: Human colostrum IgA (Catalog No. 16-13-090701, Athens Research and Technology) (human); assay: ESM counting of landing events on BSA-coated ITO; 5 nM anti-IgA mixed with 5 nM IgA in free solution; fraction of IgA still free in the first minute
[6] = biological target: Human colostrum IgA (Catalog No. 16-13-090701, Athens Research and Technology) (human); assay: ESM counting of landing events of IgA monomer and complex on BSA-coated ITO; binding in free solution; fit of monomer ratio decay
[7] = biological target: Human colostrum IgA (Catalog No. 16-13-090701, Athens Research and Technology) (human); assay: ESM real-time size (DH) of PEG-tethered single IgA on ITO after adding anti-IgA; mean of ~60 binding events
[8] = biological target: Human colostrum IgA (Catalog No. 16-13-090701, Athens Research and Technology) (human); assay: ESM counting of landing events on BSA-coated ITO; 5 nM anti-IgA mixed with 5 nM IgA in free solution; fraction of IgA still free in the third minute
[9] = biological target: Human colostrum IgA (Catalog No. 16-13-090701, Athens Research and Technology) (human); assay: single-objective ESM digital counting; 5 nM IgA flowed over anti-IgA fixed on ITO; first-order fit
[10] = biological target: Human colostrum IgA (Catalog No. 16-13-090701, Athens Research and Technology) (human); assay: ESM digital single-molecule counting; 20 nM IgA flowed over anti-IgA fixed on cover glass; first-order fit
[11] = biological target: Human colostrum IgA (Catalog No. 16-13-090701, Athens Research and Technology) (human); assay: ESM real-time charge (q) of PEG-tethered single IgA on ITO after adding anti-IgA; mean of ~60 binding events

Kd [1]: 1.84 nM
koff [1]: 0.00148 s⁻¹
kon [1]: 881000 M⁻¹ s⁻¹
shift of the IgA size peak after antibody binding [2]: 1.5 nm
Kd [3]: 0.873 nM
Kd [4]: 0.87 nM
IgA monomer ratio (first minute) [5]: 1
Kd [6]: 0.839 nM
koff [6]: 0.00173 s⁻¹
kon [6]: 2.18e+06 M⁻¹ s⁻¹
average size change on antibody binding [7]: 1.7 nm
IgA monomer ratio (third minute) [8]: 0.5
koff [9]: 0.0002 s⁻¹
kon [9]: 230000 M⁻¹ s⁻¹
koff [10]: 9.6e-05 s⁻¹
kon [10]: 110000 M⁻¹ s⁻¹
average charge change on antibody binding [11]: 1.8 e
Substance: Goat anti-human IgA (IgG, Catalog No. STAR141, BIO-RAD) (antibody)
